Values quoted from earlier work, collected in publication PMC6431256.

Target: tau peptide (Homo sapiens) (UniProt P10636)
Experiment: ITC

tau peptide (Homo sapiens), sequence (P10636 2-758): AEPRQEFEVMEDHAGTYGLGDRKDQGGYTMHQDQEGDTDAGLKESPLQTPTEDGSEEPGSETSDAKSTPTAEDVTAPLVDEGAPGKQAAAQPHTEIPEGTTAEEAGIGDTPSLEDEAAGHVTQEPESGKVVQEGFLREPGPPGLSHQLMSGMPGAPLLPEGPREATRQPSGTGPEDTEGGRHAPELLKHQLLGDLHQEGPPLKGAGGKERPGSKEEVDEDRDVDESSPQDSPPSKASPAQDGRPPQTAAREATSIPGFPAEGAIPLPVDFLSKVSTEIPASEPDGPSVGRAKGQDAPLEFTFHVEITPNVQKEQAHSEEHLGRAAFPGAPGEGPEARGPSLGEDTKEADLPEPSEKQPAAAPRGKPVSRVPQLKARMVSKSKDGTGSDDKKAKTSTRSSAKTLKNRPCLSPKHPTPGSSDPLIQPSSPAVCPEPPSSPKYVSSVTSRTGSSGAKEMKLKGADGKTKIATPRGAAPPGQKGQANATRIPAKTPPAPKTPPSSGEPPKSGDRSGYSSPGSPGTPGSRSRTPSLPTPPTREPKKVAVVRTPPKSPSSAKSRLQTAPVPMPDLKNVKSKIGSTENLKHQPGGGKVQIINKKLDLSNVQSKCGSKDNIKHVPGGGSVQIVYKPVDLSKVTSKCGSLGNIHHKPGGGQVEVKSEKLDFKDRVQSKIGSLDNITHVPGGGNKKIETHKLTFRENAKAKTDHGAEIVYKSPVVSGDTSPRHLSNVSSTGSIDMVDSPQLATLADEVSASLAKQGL
Pin1, sequence (Q13526 whole entry): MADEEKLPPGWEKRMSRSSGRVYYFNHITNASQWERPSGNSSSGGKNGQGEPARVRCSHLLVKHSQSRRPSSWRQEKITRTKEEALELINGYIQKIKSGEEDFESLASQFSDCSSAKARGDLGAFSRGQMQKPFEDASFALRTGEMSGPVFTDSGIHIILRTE

## Pin1 (from UniProt Q13526)
  Kd: 200 µM
